Source: the RNAGym collection of RNA variant scans (doi:10.7554/elife.80360)

B1: HDV Ribozyme (parent)
chain: GGCCGGCAUGGUCCCAGCCUCCUCGCUGGCGCCGGCUGGGCAACAUUCCGAGGGGACCGUCCCCUCGGUAAUGGCGAAUGGGACCCA

Variants of: B1
Assay: self-cleavage, relative activity (ratio to wild type); higher = more cleavage; co-transcriptional
Variant GGCCGGCAUGGUCCCAGCCUCCUCGCUGACGCCGGCUGGGCAACAUUCCGAGGGGACCGUCCCCUCGGUAAUUGCGAAUGGGACCCA [G29A G73U] has a self-cleavage of 0.112.
Variant GGCCGGCAUGGUCCCAGCCUCCUCGCUGCCGCCGGCUGGGCAAGAUUCCGAGGGGACCGUCCCCUCGGUAAUGGCGAAUGGGACCCA [G29C C44G] has a self-cleavage of 0.
With GGCCGGCAUGGUCCCAGCCUCCUCGCUGACGCCGGCUGGGCAACAUUCCGAGGGGACCUUCCCCUCGGUAAUGGCGAAUGGGACCCA [G29A G59U] the self-cleavage was 0.149.
For GGCCGGCAUGGUCCCAGCCUCCUCGCUGCCGCCGGCUGGGCAACAUUCCGAGGGGUCCGUCCCCUCGGUAAUGGCGAAUGGGACCCA [G29C A56U], the self-cleavage was 0.0755.
Variant GGCCGGCAUGGUCCCAGCCUCCUCGCUGCCGCCGGCUGGGCACCAUUCCGAGGGGACCGUCCCCUCGGUAAUGGCGAAUGGGACCCA [G29C A43C] has a self-cleavage of 0.0489.
GGCCGGCAUGGUCCCAGCCUCCUCGCUGACGCCGGCUGGGCAACAAUCCGAGGGGACCGUCCCCUCGGUAAUGGCGAAUGGGACCCA [G29A U46A] showed a self-cleavage of 0.156.
Variant GGCCGGCAUGGUCCCAGCCUCCUCGCUGACGCCGGCUGGGCAACAUUCCGAGGGGACCGUCCCCUCGGUAAUGGCGAAGGGGACCCA [G29A U79G] has a self-cleavage of 0.154.
With GGCCGGCAUGGUCCCAGCCUCCUCGCUGACGCCGGCGGGGCAACAUUCCGAGGGGACCGUCCCCUCGGUAAUGGCGAAUGGGACCCA [G29A U37G] the self-cleavage was 0.0723.
GGCCGGCAUGGUCCCAGCCUCCUCGCUGCCGCCGGCUGGGCAACAUUCCGAGGGGACCGUCCCCUCGGUAAUGGCGAAUGGGGCCCA [G29C A83G] showed a self-cleavage of 0.0863.
GGCCGGCAUGGUCCCAGCCUCCUCGCUGCCGCCGGCUGGGCAACAUUCCGAGGGGACCGUCCCCUCGGUAAUGGCGAAUGGGUCCCA [G29C A83U] gave a self-cleavage of 0.0462.
Variant GGCCGGCAUGGUCCCAGCCUCCUCGCUGACGCCGGCUGGGCAACAUUCCGAGGGGACCGUCCCCUCGGUAAUGCCGAAUGGGACCCA [G29A G74C] has a self-cleavage of 0.0831.
With GGCCGGCAUGGUCCCAGCCUCCUCGCUGCCGCCGGCUGGGCAACAUUCCGAGGGGACCGUCUCCUCGGUAAUGGCGAAUGGGACCCA [G29C C62U] the self-cleavage was 0.
Variant GGCCGGCAUGGUCCCAGCCUCCUCGCUGCCGCCGGCUGGGCAACAUUCCGAGGGGACCGUCACCUCGGUAAUGGCGAAUGGGACCCA [G29C C62A] has a self-cleavage of 0.
GGCCGGCAUGGUCCCAGCCUCCUCGCUGCCGCCGGCUGGGCAACAUUCCGAGGGGACCGUCCCCUCGGUAUUGGCGAAUGGGACCCA [G29C A71U] showed a self-cleavage of 0.122.
Work on GGCCGGCAUGGUCCCAGCCUCCUCGCUGCCGCCGGCUGGGCAACAUUCCGAGGGGACCGUCCCCUCGGUAGUGGCGAAUGGGACCCA [G29C A71G] yielded a self-cleavage of 0.
For GGCCGGCAUGGUCCCAGCCUCCUCGCUGCCGCCGGCUGGGCAACAUUCCGCGGGGACCGUCCCCUCGGUAAUGGCGAAUGGGACCCA [G29C A51C], the self-cleavage was 0.231.
GGCCGGCAUGGUCCCAGCCUCCUCGCUGACGCCGGCUGGGCAACAUUCCGAGGGGACCGUCCCCUCGGCAAUGGCGAAUGGGACCCA [G29A U69C] gave a self-cleavage of 0.131.
GGCCGGCAUGGUCCCAGCCUCCUCGCUGCCGCCGGCUGGGCAACAUUCCGAGGGGACUGUCCCCUCGGUAAUGGCGAAUGGGACCCA [G29C C58U] gave a self-cleavage of 0.104.
Variant GGCCGGCAUGGUCCCAGCCUCCUCGCUGCCGCCGGCUGGGCAACAUUCCGAGGGGACGGUCCCCUCGGUAAUGGCGAAUGGGACCCA [G29C C58G] has a self-cleavage of 0.156.
In the case of GGCCGGCAUGGUCCCAGCCUCCUCGCUGCCGCGGGCUGGGCAACAUUCCGAGGGGACCGUCCCCUCGGUAAUGGCGAAUGGGACCCA [G29C C33G], the self-cleavage is reported as 0.185.
Work on GGCCGGCAUGGUCCCAGCCUCCUCGCUGCCGCUGGCUGGGCAACAUUCCGAGGGGACCGUCCCCUCGGUAAUGGCGAAUGGGACCCA [G29C C33U] yielded a self-cleavage of 0.0941.
In the case of GGCCGGCAUGGUCCCAGCCUCCUCGCUGCCGCCGGCUGGGCAACAUUCCGAGGGGACCGUCCCCUCGGUAAUGGCGUAUGGGACCCA [G29C A77U], the self-cleavage is reported as 0.0369.
Variant GGCCGGCAUGGUCCCAGCCUCCUCGCUGACGCCGGCUGGGCAACAUUCCGAGGGGACCGUCCCCUCGGUAAUGGCGAAUGCGACCCA [G29A G81C] has a self-cleavage of 0.0314.
GGCCGGCAUGGUCCCAGCCUCCUCGCUGACGCCGGCUGGGCAACAUUCCGAGGGGACCGUCCCCUCGGUAAUGGCGAAUGAGACCCA [G29A G81A] showed a self-cleavage of 0.138.
In the case of GGCCGGCAUGGUCCCAGCCUCCUCGCUGCCGCCGGCUGGGCAACAUUCCGAGGGGACCGUCCCCUCGGUAAUGGCGAAUGGGACCCA [G29C], the self-cleavage is reported as 0.1.
Work on GGCCGGCAUGGUCCCAGCCUCCUCGCUGCCGCCGGCUGGGCAACUUUCCGAGGGGACCGUCCCCUCGGUAAUGGCGAAUGGGACCCA [G29C A45U] yielded a self-cleavage of 0.0519.
GGCCGGCAUGGUCCCAGCCUCCUCGCUGCCGCCGGCUGGGCAACAUUCCGAGGGGAUCGUCCCCUCGGUAAUGGCGAAUGGGACCCA [G29C C57U] showed a self-cleavage of 0.0604.
GGCCGGCAUGGUCCCAGCCUCCUCGCUGCCGCCGGCUGGGCAACAUUCCGAGGGGACCGUCCCCUCGGUAAUGGCGACUGGGACCCA [G29C A78C] showed a self-cleavage of 0.0519.
Work on GGCCGGCAUGGUCCCAGCCUCCUCGCUGACGCCGGCUGGGCAACAUUCCGAGGUGACCGUCCCCUCGGUAAUGGCGAAUGGGACCCA [G29A G54U] yielded a self-cleavage of 0.119.
GGCCGGCAUGGUCCCAGCCUCCUCGCUGCCGCCGGCUGGGCAACAUUACGAGGGGACCGUCCCCUCGGUAAUGGCGAAUGGGACCCA [G29C C48A] gave a self-cleavage of 0.
For GGCCGGCAUGGUCCCAGCCUCCUCGCUGACGCCGGCUGGGCAACAUUCCGAGGGGACCGUCCCCUCGGUAAUGGCGAAUGGAACCCA [G29A G82A], the self-cleavage was 0.109.
In the case of GGCCGGCAUGGUCCCAGCCUCCUCGCUGACGCCGGCUGGGCAACAUGCCGAGGGGACCGUCCCCUCGGUAAUGGCGAAUGGGACCCA [G29A U47G], the self-cleavage is reported as 0.0978.
